Assay results reported in patent US12692302B2, “Uses of IL-13 antagonists for treating atopic dermatitis” (Genentech, Inc., priority 2016, dated 2026).

Tests used:
[1] = tested on: patients with persistent moderate to severe atopic dermatitis inadequately controlled by TCS; assay: Clinical Study I: safety, Weeks 0 to 20; assay type: in vivo, human
Excerpt: Safety Follow-Up Period. All patients who completed study treatment during the placebo-controlled treatment period (Weeks 1-12) were followed for safety for an additional 8 weeks (Weeks 13-20). During this safety follow-up period, patients were no longer required to apply the topical treatment regimen as specified during the run-in and treatment periods. Instead, triamcinolone acetonide 0.1% cream and/or hydrocortisone 2.5% cream could be applied as determined by the patient and the study investigator. At each study visit the patient was required to bring their TCS containers to the study site to be weighed. Patients were encouraged to continue applying emollients at least once daily to xerotic skin. An escalation in therapy for AD was allowed at any during the study, if, in the opinion of the investigator, it was clinically indicated.
Safety Outcome Measures. The safety outcome measures for this study were as follows: (i) frequency and severity of treatment-emergent adverse events; (ii) incidence of human anti-therapeutic antibodies (ATA) at baseline and during the study; (iii) frequency and severity of skin and other organ system infections throughout the study; the clinical definition of skin infection was as follows: the diagnosis of infection was based on the Investigator's clinical assessment including but not limited to the presence of honey-colored crusting, serous discharge, pustules, or pain at the site of rash and that may be associated with systemic features, including fever or a flare in AD disease (defined above); and (iv) incidence of disease rebound following discontinuation of study drug as assessed by the investigator; the clinical definition of disease rebound was: a significant worsening of disease severity after cessation of therapy to a severity level that is greater than prior to commencing therapy (Hijnen et al., J Eur Acad Dermatol Venereol 2007; 21(1) 85-9).

[2] = tested on: adult patients with persistent moderate to severe AD inadequately controlled by TCS; assay: Clinical Study II (phase II, open label, lebrikizumab monotherapy vs TCS alone): efficacy; assay type: in vivo, human; conditions: for % change in BSA / % change in EASI / % change in SCORAD / EASI-75 (percent of patients) / EASI-90 (percent of patients) / IGA 0/1 (percent of patients): lebrikizumab 125 mg SC Q4W monotherapy (n = 28) or TCS cream alone BID (n = 27); for % change in pruritus VAS: patients with baseline pruritus VAS ≥3, lebrikizumab 125 mg SC Q4W monotherapy or TCS cream alone BID
Excerpt: Clinical Study II was a Phase II, randomized, open label study to evaluate the safety and efficacy of lebrikizumab monotherapy in adult patients (18-75 years of age) with persistent moderate to severe AD, who were inadequately controlled by TCS.
The inclusion criteria included the following: age 18 to 75 years; AD diagnosed by the Hanifin/Rajka criteria and that had been present for at least 1 year at screening; moderate to severe AD as graded by the Rajka/Langeland criteria at screening; history of inadequate response to a 1 month (within the 3 months prior to the screening visit) treatment regimen of at least daily TCS and regular emollient for treatment of AD; EASI score 14 at screening and end of the run-in period (Visit 3), IGA score 3 (5-point scale) at screening and end of the run-in period (Visit 3); AD involvement of 10% body surface area (BSA) at screening; and Pruritus VAS score (measured as part of the SCORAD) of 3 at screening; adherence to the protocol-specified 2-week run-in period TCS regimen (at least 10 out of 14 days) at the time of entry into the treatment period (Day 1).
Run-in Period. Following screening, eligible patients entered a 2-week run-in period (Days −14 to −1). After the run-in period, patients stopped use of their pre-study TCS (and other AD medications) and began a protocol-specified topical therapy regimen as outlined below. On the first day of the run-in period (Day −14) patients received TCS for use throughout the run-in period. Specifically, patients received triamcinolone acetonide 0.1% cream for use on the body and hydrocortisone 2.5% cream for use on the face and intertriginous areas. Patients were instructed to apply emollient to all xerotic skin surfaces at least once daily and to apply cream to active skin lesions twice per day and not to apply cream to unaffected areas.
Treatment Period (Weeks 1-12). […] A total of approximately 50 patients were randomized (1:1) to one of the following two treatment groups (see FIG. 10): Group 1: 125 mg of lebrikizumab administered by subcutaneous (SC) injection every 4 weeks (Q4W) for a total of 3 doses; and Group 2: TCS cream alone.
Efficacy Outcome Measures. The exploratory efficacy outcome measures of lebrikizumab monotherapy compared to TCS alone for this study were as follows, in order: (i) percent of patients with a 50% or 75% (EAST 50/75) reduction from baseline EASI at Week 12 (EASI-50 and EASI-75 were defined as a 50% and 75% reduction, respectively, in EASI score at Week 12 compared to baseline); (ii) percent and absolute change from baseline in EASI score at Week 12; (iii) percent of patients achieving an IGA score of 0 or 1 at Week 12; (iv) percent of patients with a ≥2 point reduction from baseline in IGA at Week 12; (v) absolute change from baseline in IGA at Week 12; (vi) percent of patients achieving an IGSA score of 0 or 1 at Week 12; (vii) percent of patients with a ≥2 point reduction from baseline in IGSA at Week 12; (viii) absolute change from baseline in IGSA at Week 12; (ix) percent and absolute change from baseline in SCORAD at Week 12; (x) percent of patients with a 50% or 75% reduction (SCORAD 50/75) from baseline in SCORAD score at Week 12; (xi) percent change from baseline in total percent body surface area (BSA) affected at Week 12; (xii) absolute- and percent-change from baseline in pruritus as measured by the Pruritus VAS (assessed as part of the SCORAD) at Week 12; (xiii) number of disease flares from baseline to Week 12; and (xiv) percent of patients who receive non-protocol specified TCS before Week 12.

[3] = 125 mg Q4W + TCS (n = 50), Weeks 0 to 20
[4] = 125 mg SD + TCS (n = 54), Weeks 0 to 20
[5] = 250 mg SD + TCS (n = 52), Weeks 0 to 20
[6] = all lebrikizumab groups (n = 156), Weeks 0 to 20
[7] = lebrikizumab-treated patients, all doses

lebrikizumab: monoclonal humanized anti-IL-13 IgG4 antibody; heavy chain SEQ ID NO: 11, light chain SEQ ID NO: 12; formulated at 125 mg/mL in prefilled syringe
AE leading to withdrawal from study drug, % [1, 3]: (4) % | Conjunctivitis allergic, % [1, 3]: (4.0) % | Injection site reactions, % [1, 3]: (4) % | Patients with at least one AE, % [1, 3]: (54) % | Patients with at least one serious AE, % [1, 3]: (4) % | SAE leading to withdrawal from study drug (Myopathy), % [1, 3]: (2) % | AE leading to withdrawal from study drug, % [1, 4]: (2) % | Conjunctivitis allergic, % [1, 4]: (7.4) % | Patients with at least one AE, % [1, 4]: (70) % | Patients with at least one serious AE, % [1, 4]: (6) % | AE leading to dose modification/interruption, % [1, 5]: (2) % | Conjunctival hyperaemia, % [1, 5]: (1.9) % | Conjunctivitis allergic, % [1, 5]: (3.8) % | Patients with at least one AE, % [1, 5]: (75) % | Conjunctival hyperaemia, % [1, 6]: (0.6) % | Conjunctivitis allergic, % [1, 6]: (5.1) % | Patients with at least one serious AE, % [1, 6]: (3) % | SAE leading to withdrawal from study drug (Myopathy), % [1, 6]: (1) % | Conjunctival infections, irritations and inflammations: patients with at least one AE, % ([1]; human, in vivo): (5.8) % | Conjunctival infections, irritations and inflammations: total number of events ([1]; human, in vivo): 10 | Herpes infections: total number of infections related to study drug (investigator-assessed) ([1]; human, in vivo): 0 | Infections, % ([1]; human, in vivo): (36) % | maximum eosinophil count in the five patients with eosinophil-associated AEs ([1]; human, in vivo): 0.91-3.2 ×10^9/L | Eosinophil-associated AEs, % of patients [1, 7]: 3.2% | Eosinophil-associated AEs, number of patients [1, 7]: five | patients with a conjunctivitis AE, % ([1]; pooled lebrikizumab group): 9.6% | deaths, events of anaphylaxis, malignancy, or protocol-defined parasitic or targeted intracellular infections of interest ([1]; whole study): no deaths | % change in BSA ([2]; Baseline to Week 12): −43.2% | % change in EASI ([2]; Baseline to Week 12): −44.0% | % change in SCORAD ([2]; Baseline to Week 12): −26.6% | EASI-75 (percent of patients) ([2]; Baseline to Week 12): 39.3% | EASI-90 (percent of patients) ([2]; Baseline to Week 12): 14.3% | IGA 0/1 (percent of patients) ([2]; Baseline to Week 12): 7.1% | % change in pruritus VAS ([2]; Baseline to Week 12): −14.5% | % change in BSA ([2]; Day −14 to Week 12): −52.2% | % change in EASI ([2]; Day −14 to Week 12): −53.8% | % change in SCORAD ([2]; Day −14 to Week 12): −40.5% | EASI-75 (percent of patients) ([2]; Day −14 to Week 12): 42.9% | EASI-90 (percent of patients) ([2]; Day −14 to Week 12): 14.3% | IGA 0/1 (percent of patients) ([2]; Day −14 to Week 12): 7.1% | % change in pruritus VAS ([2]; Day −14 to Week 12): −39.6%
